Columns and labels:
[1] = molecular target: Aspergillus oryzae lectin (AOL) of Comparison Example 2 (Aspergillus oryzae); assay: hemagglutination inhibition; glycoprotein titrated against lectin at titer 4
[2] = molecular target: Aleuria aurantia lectin (AAL) of Comparison Example 1 (Aleuria aurantia) (UniProt P18891); assay: as above
[3] = molecular target: Pholiota terrestris lectin (PTL) of Example 1 (Pholiota terrestris); assay: as above
[4] = molecular target: Lens culinaris agglutinin (LCA) of Comparison Example 3 (Lens culinaris) (UniProt P02870); assay: as above
[5] = molecular target: Pisum sativum agglutinin (PSA) of Comparison Example 4 (Pisum sativum) (UniProt P02867); assay: as above
[6] = molecular target: Stropharia rugosoannulata lectin (SRL) of Example 2 (Stropharia rugosoannulata); assay: as above
[7] = molecular target: α-fetoprotein (derived from human umbilical cord blood serum, mainly L1-type sugar chain) (human) (UniProt P02771); assay: ELISA, α-fetoprotein coated at 0.01 µg/ml, biotin-labeled lectin
α-fetoprotein (derived from human umbilical cord blood serum, mainly L1-type sugar chain) (human), sequence (P02771 19-609 limits assumed): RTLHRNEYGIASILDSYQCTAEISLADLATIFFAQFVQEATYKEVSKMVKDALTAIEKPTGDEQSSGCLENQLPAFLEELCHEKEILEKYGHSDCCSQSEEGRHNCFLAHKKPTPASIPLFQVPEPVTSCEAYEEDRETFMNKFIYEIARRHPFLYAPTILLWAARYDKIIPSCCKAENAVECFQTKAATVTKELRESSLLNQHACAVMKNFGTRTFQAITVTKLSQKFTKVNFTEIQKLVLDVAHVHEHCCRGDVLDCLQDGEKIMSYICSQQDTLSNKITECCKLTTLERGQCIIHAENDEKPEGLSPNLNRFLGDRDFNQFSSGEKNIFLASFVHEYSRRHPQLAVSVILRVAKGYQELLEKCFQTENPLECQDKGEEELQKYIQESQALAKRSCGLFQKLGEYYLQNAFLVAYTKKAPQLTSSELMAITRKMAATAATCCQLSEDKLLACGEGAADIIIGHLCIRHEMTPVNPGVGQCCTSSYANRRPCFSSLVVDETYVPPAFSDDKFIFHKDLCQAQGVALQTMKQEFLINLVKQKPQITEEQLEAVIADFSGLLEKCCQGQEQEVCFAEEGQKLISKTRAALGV

[8] = molecular target: α-fetoprotein-L3 (prepared from the culture supernatant of human liver cancer cells) (human) (UniProt P02771); assay: ELISA, α-fetoprotein-L3 coated at 0.01 µg/ml, biotin-labeled lectin
α-fetoprotein-L3 (prepared from the culture supernatant of human liver cancer cells) (human), sequence (P02771 19-609 limits assumed): as above

[9] = molecular target: T1, Invertase (yeast) (yeast, UniProt P00724 20-532, high mannose-type sugar chains); assay: ELISA, glycoprotein coated, biotin-labeled lectin; relative value with thyroglobulin = 100%
T1 sequence (looked up): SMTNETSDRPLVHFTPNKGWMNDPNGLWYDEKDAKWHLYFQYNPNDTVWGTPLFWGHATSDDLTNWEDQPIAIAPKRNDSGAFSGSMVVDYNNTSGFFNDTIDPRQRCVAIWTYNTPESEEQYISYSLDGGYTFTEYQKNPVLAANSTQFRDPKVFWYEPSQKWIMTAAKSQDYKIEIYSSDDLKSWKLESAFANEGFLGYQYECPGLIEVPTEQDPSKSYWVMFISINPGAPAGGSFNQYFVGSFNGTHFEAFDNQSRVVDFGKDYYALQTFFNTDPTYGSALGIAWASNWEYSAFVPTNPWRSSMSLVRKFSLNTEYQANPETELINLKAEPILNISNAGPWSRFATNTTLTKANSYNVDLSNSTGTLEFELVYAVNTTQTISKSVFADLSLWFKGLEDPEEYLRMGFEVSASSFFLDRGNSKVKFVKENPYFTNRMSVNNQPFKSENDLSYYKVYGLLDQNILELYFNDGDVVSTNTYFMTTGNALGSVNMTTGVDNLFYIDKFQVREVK
Description: (§1) The glycoprotein and albumin as protein not including a sugar chain as a control were dissolved in 0.1 M carbonic acid buffer solution (pH 9.5) at 1 mg/ml. Then, the resultant solution was added to a microtiter plate (Nunc 439454) and was incubated at 4 degrees C. overnight. Then, the resultant solution was cleaned by 0.05% Tween/PBS three times. Thereafter, 1% BSA/PBS was added to wells and the solution was incubated at 37 degrees C. for one hour. Then, after the solution was cleaned by 0.05% Tween/PBS three times, biotin labeled-lectin appropriately diluted by 1% BSA/0.05% Tween/PBS was added to the wells and the solution was incubated at 37 degrees C. for one hour. After the solution was cleaned by 0.05% Tween/PBS three times, HRP labeled streptavidin solution diluted by 1% BSA/0.05% Tween/PBS was added to wells and the solution was incubated at 37 degrees C. for 30 minutes. After the solution was cleaned by 0.05% Tween/PBS three times, TMB Peroxidase substrate system (KPL) was added and the resultant solution was incubated at a room temperature for 10 minutes while light was being blocked.
(§2) The reaction was stopped by 1 M phosphoric acid. Then, a microplate reader (MPR-A4i, TOSOH CORPORATION) was used to measure the absorbance at 450 nm. Based on this value, reaction value ([absorbance at 450 nm of a well for which glycoprotein was solid-phased to the plate and
(§3) […] reacted]−[absorbance at 450 nm of a well for which glycoprotein was not solid-phased to the plate and reacted] was calculated. Next, for each lectin, the interaction strength (relative value) to each glycoprotein was calculated based on an assumption that the glycoprotein (thyroglobulin) value was 100%. The calculation result is shown in Table 9 and FIG. 19 to FIG. 23.

[10] = molecular target: T2, Bovine serum albumin (bovine, UniProt P02769 25-607); assay: as above
T2 construct: Control protein without a sugar chain; also called Bovine blood serum albumin; Blood serum albumin (bovine)
T2 sequence (P02769 25-607 limits assumed): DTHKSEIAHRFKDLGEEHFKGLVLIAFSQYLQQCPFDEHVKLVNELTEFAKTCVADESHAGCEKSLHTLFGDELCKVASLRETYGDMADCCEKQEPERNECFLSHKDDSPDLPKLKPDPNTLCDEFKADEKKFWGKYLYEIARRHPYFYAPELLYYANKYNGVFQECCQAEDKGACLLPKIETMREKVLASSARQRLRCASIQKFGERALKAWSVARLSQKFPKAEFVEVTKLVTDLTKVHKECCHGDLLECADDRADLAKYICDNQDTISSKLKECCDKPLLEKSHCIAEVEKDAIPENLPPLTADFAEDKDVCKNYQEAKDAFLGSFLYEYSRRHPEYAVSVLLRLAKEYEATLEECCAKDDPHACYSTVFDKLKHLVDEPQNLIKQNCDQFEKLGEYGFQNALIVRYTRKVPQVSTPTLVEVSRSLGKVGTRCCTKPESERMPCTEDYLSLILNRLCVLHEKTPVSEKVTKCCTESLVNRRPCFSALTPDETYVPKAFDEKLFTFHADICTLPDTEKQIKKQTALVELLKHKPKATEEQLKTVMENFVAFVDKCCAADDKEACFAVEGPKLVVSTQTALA
Description: as §1, §2, §3

[11] = molecular target: Lactoferrin (bovine) (bovine, UniProt P24627 20-708, L-fucose α1→6 N-linked glycans); assay: Western blotting, glycoprotein on PVDF stained with biotin-labeled lectin; ◯ = Detected
Description: (§4) The film was immersed in 10 mM Tris buffer solution including 0.8% NaCl added with 1% BSA (pH 7.4, 1% BSA+TBS) and was shaken at a room temperature for one hour. Then, the film was cleaned three times by 10 mM Tris buffer solution (pH 7.4, TBS) including 0.8% NaCl. Then, the film was immersed in biotin-labeled lectin solution (2 µg/ml) and was shaken at a room temperature for one hour. Then, the film was cleaned three times by TBS. Then, the film was immersed in the HRP label streptavidin solution at 1 µg/ml (Vector Laboratories) and was shaken at a room temperature for 30 minutes. After the film was cleaned three times by TBS, a POD immunostain set (Wako Pure Chemical Industries, Ltd.) was used to perform a staining test. The staining test is to detect glycoprotein by the western blotting using biotin-labeled lectin. FIG. 13 to FIG. 17 are photographs showing the following glycoproteins stained by PTL (FIG. 13), SRL (FIG. 14), AAL (FIG. 15), AOL (FIG. 16), or LCA (FIG. 17).

[12] = molecular target: Thyroglobulin (pig) (pig, UniProt F1RRV3 20-2692, L-fucose α1→6 N-linked glycans); assay: ELISA, glycoprotein coated, biotin-labeled lectin; thyroglobulin set to 100%; ⊚ = relative values of 120 to 80
Thyroglobulin (pig), sequence (F1RRV3 20-2692 limits assumed): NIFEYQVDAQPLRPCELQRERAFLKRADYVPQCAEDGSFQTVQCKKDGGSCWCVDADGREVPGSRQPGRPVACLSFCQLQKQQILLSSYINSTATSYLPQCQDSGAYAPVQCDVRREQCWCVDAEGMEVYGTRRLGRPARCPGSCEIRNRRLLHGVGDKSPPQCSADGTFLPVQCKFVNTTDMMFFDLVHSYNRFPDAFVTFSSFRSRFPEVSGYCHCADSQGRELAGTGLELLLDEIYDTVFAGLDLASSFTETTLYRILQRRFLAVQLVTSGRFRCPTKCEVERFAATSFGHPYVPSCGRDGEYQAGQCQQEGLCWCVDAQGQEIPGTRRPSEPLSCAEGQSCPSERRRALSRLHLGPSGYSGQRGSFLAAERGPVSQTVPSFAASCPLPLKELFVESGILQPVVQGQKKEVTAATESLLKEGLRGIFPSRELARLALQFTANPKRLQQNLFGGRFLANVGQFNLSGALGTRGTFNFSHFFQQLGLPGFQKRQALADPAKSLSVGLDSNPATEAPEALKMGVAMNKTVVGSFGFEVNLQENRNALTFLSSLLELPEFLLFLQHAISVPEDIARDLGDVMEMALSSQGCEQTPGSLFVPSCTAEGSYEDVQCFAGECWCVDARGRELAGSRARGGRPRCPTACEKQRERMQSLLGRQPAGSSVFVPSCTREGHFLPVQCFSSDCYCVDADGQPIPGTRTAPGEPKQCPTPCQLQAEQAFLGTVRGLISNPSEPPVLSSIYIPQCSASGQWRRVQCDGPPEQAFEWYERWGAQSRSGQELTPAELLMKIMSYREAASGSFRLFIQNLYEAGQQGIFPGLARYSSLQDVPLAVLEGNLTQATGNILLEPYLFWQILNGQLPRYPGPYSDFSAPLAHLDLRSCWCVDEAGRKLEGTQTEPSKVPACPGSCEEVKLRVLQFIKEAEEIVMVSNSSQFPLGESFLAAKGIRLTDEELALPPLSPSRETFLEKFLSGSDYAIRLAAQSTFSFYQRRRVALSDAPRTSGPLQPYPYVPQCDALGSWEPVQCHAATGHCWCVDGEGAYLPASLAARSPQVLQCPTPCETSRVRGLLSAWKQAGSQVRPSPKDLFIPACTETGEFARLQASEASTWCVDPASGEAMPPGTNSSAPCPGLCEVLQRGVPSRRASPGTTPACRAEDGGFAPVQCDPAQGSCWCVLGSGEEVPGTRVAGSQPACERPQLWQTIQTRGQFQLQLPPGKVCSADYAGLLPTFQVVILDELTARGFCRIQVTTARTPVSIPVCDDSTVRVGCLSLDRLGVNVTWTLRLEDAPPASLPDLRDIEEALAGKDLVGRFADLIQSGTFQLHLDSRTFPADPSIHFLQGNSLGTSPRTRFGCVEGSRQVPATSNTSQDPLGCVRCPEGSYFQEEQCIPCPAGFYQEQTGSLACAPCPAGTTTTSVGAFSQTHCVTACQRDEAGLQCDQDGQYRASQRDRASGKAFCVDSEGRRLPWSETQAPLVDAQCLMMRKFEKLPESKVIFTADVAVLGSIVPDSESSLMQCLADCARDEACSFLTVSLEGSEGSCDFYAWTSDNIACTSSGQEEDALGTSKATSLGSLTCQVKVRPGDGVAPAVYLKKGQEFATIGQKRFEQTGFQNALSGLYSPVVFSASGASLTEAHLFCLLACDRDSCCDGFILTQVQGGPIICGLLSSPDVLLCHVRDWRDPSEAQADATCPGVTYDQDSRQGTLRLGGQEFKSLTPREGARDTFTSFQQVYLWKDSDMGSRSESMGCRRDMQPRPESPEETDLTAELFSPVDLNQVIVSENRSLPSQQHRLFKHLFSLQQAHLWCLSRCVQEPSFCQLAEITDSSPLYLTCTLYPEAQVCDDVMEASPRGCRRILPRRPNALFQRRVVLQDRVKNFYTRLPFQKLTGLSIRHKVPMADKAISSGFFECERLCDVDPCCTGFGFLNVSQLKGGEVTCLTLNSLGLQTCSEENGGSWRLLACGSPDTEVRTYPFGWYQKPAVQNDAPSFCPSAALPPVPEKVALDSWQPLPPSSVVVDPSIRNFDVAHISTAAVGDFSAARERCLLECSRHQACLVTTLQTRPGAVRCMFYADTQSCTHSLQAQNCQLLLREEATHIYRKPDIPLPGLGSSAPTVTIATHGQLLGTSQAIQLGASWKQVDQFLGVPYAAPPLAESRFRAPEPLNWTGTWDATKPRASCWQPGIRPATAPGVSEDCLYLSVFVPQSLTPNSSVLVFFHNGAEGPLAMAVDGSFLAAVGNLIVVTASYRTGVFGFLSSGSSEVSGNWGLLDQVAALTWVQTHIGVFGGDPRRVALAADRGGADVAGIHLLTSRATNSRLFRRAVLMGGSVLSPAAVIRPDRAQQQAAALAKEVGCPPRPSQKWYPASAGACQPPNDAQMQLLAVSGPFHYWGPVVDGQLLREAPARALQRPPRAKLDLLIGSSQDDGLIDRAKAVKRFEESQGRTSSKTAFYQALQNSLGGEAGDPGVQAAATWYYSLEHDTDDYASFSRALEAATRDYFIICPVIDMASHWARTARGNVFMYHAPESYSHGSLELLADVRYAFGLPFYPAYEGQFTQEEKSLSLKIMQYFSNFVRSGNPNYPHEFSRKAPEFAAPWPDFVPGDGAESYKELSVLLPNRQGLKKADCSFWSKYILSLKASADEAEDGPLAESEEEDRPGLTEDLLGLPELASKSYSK
Description: The glycoprotein and albumin as protein not including a sugar chain as a control were dissolved in 0.1 M carbonic acid buffer solution (pH 9.5) at 1 mg/ml. Then, the resultant solution was added to a microtiter plate (Nunc 439454) and was incubated at 4 degrees C. overnight. Then, the resultant solution was cleaned by 0.05% Tween/PBS three times. Thereafter, 1% BSA/PBS was added to wells and the solution was incubated at 37 degrees C. for one hour. Then, after the solution was cleaned by 0.05% Tween/PBS three times, biotin labeled-lectin appropriately diluted by 1% BSA/0.05% Tween/PBS was added to the wells and the solution was incubated at 37 degrees C. for one hour. […]
as §2
In contrast with this, in the case of PTL of Example 1 and SRL of Example 2, only glycoprotein having sL-fucose α1→6 sugar chain is detected and a non-L-fucose α1→6 reacted]−[absorbance at 450 nm of a well for which glycoprotein was not solid-phased to the plate and reacted] was calculated. […]

[13] = molecular target: Transferrin (human) (human, UniProt P02787 20-698, N-linked glycans without L-fucose α1→6); assay: Western blotting, glycoprotein on PVDF stained with biotin-labeled lectin
Transferrin (human), sequence (P02787 20-698 limits assumed): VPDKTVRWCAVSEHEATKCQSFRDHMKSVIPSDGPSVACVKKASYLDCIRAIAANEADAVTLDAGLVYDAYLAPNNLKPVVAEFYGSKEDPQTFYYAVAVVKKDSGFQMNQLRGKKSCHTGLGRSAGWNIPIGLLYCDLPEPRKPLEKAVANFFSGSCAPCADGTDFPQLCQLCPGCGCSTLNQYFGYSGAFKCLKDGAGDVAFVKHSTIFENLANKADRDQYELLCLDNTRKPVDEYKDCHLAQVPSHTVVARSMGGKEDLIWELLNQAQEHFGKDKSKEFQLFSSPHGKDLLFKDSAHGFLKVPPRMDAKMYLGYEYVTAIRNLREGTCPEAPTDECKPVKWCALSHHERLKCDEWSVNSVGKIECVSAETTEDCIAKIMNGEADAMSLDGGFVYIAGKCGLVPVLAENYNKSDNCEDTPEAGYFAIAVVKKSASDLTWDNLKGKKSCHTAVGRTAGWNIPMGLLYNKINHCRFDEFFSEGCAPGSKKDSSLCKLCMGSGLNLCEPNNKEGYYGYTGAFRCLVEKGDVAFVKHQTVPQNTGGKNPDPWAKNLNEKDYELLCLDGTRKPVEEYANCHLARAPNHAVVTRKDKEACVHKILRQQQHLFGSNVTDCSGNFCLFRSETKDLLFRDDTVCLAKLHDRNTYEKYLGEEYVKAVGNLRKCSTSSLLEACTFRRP
Description: as §4

Aspergillus oryzae lectin (AOL) of Comparison Example 2 (Aspergillus oryzae), sequence (Q8TGE0 whole entry): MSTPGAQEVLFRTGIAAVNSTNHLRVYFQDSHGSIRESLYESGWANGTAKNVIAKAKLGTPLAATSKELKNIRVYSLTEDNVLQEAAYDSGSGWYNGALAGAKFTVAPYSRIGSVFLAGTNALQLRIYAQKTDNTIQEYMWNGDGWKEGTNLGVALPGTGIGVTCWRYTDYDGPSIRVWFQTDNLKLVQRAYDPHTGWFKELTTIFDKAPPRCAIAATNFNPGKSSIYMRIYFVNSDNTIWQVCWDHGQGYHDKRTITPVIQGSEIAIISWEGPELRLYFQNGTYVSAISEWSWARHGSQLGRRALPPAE

Asialomucin (pig)
minimum inhibition concentration [1]: 62.5 µl/ml | minimum inhibition concentration [2]: 31.3 µl/ml

Mucin (pig)
minimum inhibition concentration [1]: 62.5 µl/ml | minimum inhibition concentration [2]: 15.6 µl/ml

Thyroglobulin (Table 3 and affinity column, species not stated)
minimum inhibition concentration [3]: 250 µl/ml | minimum inhibition concentration [2]: 125 µl/ml | minimum inhibition concentration [4]: 62.5 µl/ml | minimum inhibition concentration [5]: 62.5 µl/ml | minimum inhibition concentration [6]: 250 µl/ml

Aspergillus oryzae lectin (AOL) of Comparison Example 2
reaction value (absorbance at 450 nm, blank subtracted) (absorbance at 450 nm) [7]: 0.011 | reaction value (absorbance at 450 nm, blank subtracted) (absorbance at 450 nm) [8]: 0.898

Pholiota terrestris lectin (PTL) of Example 1
reaction value (absorbance at 450 nm, blank subtracted) (absorbance at 450 nm) [8]: 1.55

Lens culinaris agglutinin (LCA) of Comparison Example 3 (from UniProt P02870 31-210; P02870 218-269)
reaction value (absorbance at 450 nm, blank subtracted) (absorbance at 450 nm) [7]: 0.01 | reaction value (absorbance at 450 nm, blank subtracted) (absorbance at 450 nm) [8]: 0.455

Aleuria aurantia lectin (AAL) of Comparison Example 1 (from UniProt P18891 2-313)
reaction value (absorbance at 450 nm, blank subtracted) (absorbance at 450 nm) [8]: 0.795

Asialofetuin
minimum inhibition concentration [4]: 250 µl/ml

Stropharia rugosoannulata lectin (SRL) of Example 2
reaction value (absorbance at 450 nm, blank subtracted) (absorbance at 450 nm) [7]: 0.031 | reaction value (absorbance at 450 nm, blank subtracted) (absorbance at 450 nm) [8]: 1.62

B1: Aleuria aurantia lectin (AAL) of Comparison Example 1 (other, UniProt P18891 2-313, looked up)
chain: PTEFLYTSKIAAISWAATGGRQQRVYFQDLNGKIREAQRGGDNPWTGGSSQNVIGEAKLFSPLAAVTWKSAQGIQIRVYCVNKDNILSEFVYDGSKWITGQLGSVGVKVGSNSKLAALQWGGSESAPPNIRVYYQKSNGSGSSIHEYVWSGKWTAGASFGSTVPGTGIGATAIGPGRLRIYYQATDNKIREHCWDSNSWYVGGFSASASAGVSIAAISWGSTPNIRVYWQKGREELYEAAYGGSWNTPGQIKDASRPTPSLPDTFIAANSSGNIDISVFFQASGVSLQQWQWISGKGWSIGAVVPTGTPAGW
modifications: biotin-labeled in the Western blotting and ELISA experiments
notes: Bought lectin
binding result [9]: no binding (tested: relative value 10 or less) | binding result [10]: no binding (tested: relative value 10 or less) | binding result [11]: binds | binding result [12]: binds | binding result [13]: no binding (tested: biotin-labeled lectin 2 µg/ml)

B2: Lens culinaris agglutinin (LCA) of Comparison Example 3 (other)
chain 1: TETTSFSITKFSPDQKNLIFQGDGYTTKGKLTLTKAVKSTVGRALYSTPIHIWDRDTGNVANFVTSFTFVIDAPSSYNVADEFTFFIAPVDTKPQTGGGYLGVFNSKEYDKTSQTVAVEFDTFYNAAWDPSNKERHIGIDVNSIKSVNTKSWNLQNGERANVVIAFNAATNVLTVTLTYP
chain 2: VTSYTLNEVVPLKDVVPEWVRIGFSATTGAEFAAHEVHSWSFHSELGGTSSS
modifications: biotin-labeled in the Western blotting and ELISA experiments
notes: Bought lectin
binding result [10]: no binding (tested: relative value 10 or less) | binding result [13]: no binding (tested: biotin-labeled lectin 2 µg/ml)

— patent US8461305B2, “L-fucose α1→6 specific lectin” (J-Oil Mills, Inc., priority 2008, dated 2013)
